From paper PMC7857400 (Science (New York, N.y.), 2020)
Residue numbers refer to the chain shown, from its start.

Experiments:
[1] = target: T1, SARS-CoV-2 spike protein receptor binding domain (RBD) (SARS-CoV-2, UniProt P0DTC2); assay: SPR; details: both partners purified
[2] = target: T1, SARS-CoV-2 spike protein receptor …; assay: cell-based or functional assay

B1: Nb20 (VHH)
VHH: QVQLVESGGGLVQAGGSLRLSCAVSGAGAHRVGWFRRAPGKEREFVAAIGASGGMTNYLDSVKGRFTISRDNAKNTIYLQMNSLKPQDTAVYYCAARDIETAEYIYWGQGTQVTVSS
[1]
  Kd: 0.0104 nM
[2]
  IC50 of neutralisation, pseudotyped SARS-CoV-2 (luciferase reporter); RBD-hACE2 is the pair interfered with: 0.102 nM

B2: Nb21 (VHH)
VHH: B1 VHH with A27L, S52N, M55N, I105T
[2]
  IC50 of neutralisation, pseudotyped SARS-CoV-2 (luciferase reporter); RBD-hACE2 is the pair interfered with: 0.045 nM
